# Measurements: patent US20120082681A1 (Novartis, published 2012)
# Substitutions are numbered along the chain they refer to. Numbers in names are those of the source.
# T1: mouse IL12Rbeta1 (mouse, UniProt Q60837 20-565, limits assumed)
# T1 construct: also called murine IL12Rbeta1; rodent IL12Rbeta1 proteins
# T1 sequence (looked up): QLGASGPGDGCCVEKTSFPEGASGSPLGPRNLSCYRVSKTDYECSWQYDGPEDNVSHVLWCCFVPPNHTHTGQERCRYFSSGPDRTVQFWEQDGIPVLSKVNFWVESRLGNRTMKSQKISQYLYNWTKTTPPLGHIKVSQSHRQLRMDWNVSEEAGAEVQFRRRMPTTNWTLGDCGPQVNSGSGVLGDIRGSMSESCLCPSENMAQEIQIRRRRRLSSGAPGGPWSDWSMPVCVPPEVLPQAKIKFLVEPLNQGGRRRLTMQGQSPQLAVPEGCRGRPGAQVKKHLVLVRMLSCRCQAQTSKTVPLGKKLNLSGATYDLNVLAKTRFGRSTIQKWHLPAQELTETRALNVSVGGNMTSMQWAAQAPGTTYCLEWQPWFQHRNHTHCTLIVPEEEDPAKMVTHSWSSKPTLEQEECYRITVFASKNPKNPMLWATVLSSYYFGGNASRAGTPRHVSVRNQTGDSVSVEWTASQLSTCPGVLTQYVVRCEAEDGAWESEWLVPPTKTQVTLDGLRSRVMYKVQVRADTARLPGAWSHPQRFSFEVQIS
# B1: mAb1 (MOR11873 with IgG1 LALA Fc variant) (antibody, V domains shown)
# VH: QVQLVESGGGVVQPGRSLRLSCAASGFTFTSYGMSWVRQAPGKGLEWVAGISYSGSDTEYADSVKGRFTISRDNSKNTLYLQMNSLRAEDTAVYYCARSPDYIIDYGFDYWGRGTLVTVSS
# VL: AIQMTQSPSSLSASVGDRVTITCRASQGISSDLAWYQQKPGKAPKLLIYDASSLQSGVPSRFSGSGSGTDFTLTISSLQPEDFATYYCQQYWIYPFTFGQGTKVEIKR
# notes: Human IgG1 L234A L235A (LALA), expressed in HKB11 cells
# B2: mAb7 (MOR11879 with IgG1 LALA Fc variant) (antibody, V domains shown)
# VH: QVQLVQSGAEVKKPGASVKVSCKASGYTFTGYYMHWVRQAPGQGLEWMGMIGPQHGEAIYAQKFQGRVTMTRDTSISTAYMELSRLRSEDTAVYYCARESTDSDESPFDYWGQGTLVTVSS
# VL: DIELTQPPSVSVSPGQTASITCSGDNIRSYYVSWYQQKPGQAPVLVIYDDSDRPSGIPERFSGSNSGNTATLTISGTQAEDEADYYCQSYGSHSNFVVFGGGTKLTVLG
# notes: as for B1
# B3: mAb10 (MOR11880 with IgG1 LALA Fc variant) (antibody, V domains shown)
# VH: B2 VH with E89D
# VL: B2 VL with D1S, I2Y, P8L, S13A, P14L, S19R, G76R, T77A, E80G
# notes: as for B1
# B4: mAb4 (MOR11878 with IgG1 LALA Fc variant) (antibody, V domains shown)
# VH: B1 VH with S54D, G55A
# VL: B1 VL with I93W
# notes: as for B1
# B5: MOR11880 (antibody, V domains shown)
# VH: B2 VH with E89D
# VL: B2 VL with D1S, I2Y, P8L, S13A, P14L, S19R, G76R, T77A, E80G
# notes: Named by its variable regions only; H/DxMS used a representative antibody of the group; also called group mAb10, mAb11, mAb12, mAb16 (MOR11880)
# B6: MOR11873 (antibody, V domains shown)
# VH: B1 VH
# VL: B1 VL
# notes: Named by its variable regions only; H/DxMS used a representative antibody of the group; also called group mAb1, mAb2, mAb3, mAb13 (MOR11873)
# B7: MOR11878 (antibody, V domains shown)
# VH: B1 VH with S54D, G55A
# VL: B1 VL with I93W
# notes: Named by its variable regions only; H/DxMS used a representative antibody of the group; also called group mAb4, mAb5, mAb6, mAb14 (MOR11878)
# Target: T2, human IL12Rbeta1 polypeptide (soluble receptor/antigen, construct not stated) (human, UniProt P42701 24-545)
# T2 construct: the whole entry is named; also called IL12Rβ1; the receptor
# Assay: in vitro competitive binding assay (Bioveris/MSD); inhibition of receptor binding to coated IL12; IL12 competitive binding (first number of 8/18)
# Description: (§1) During the assay procedure, a fixed amount (predetermined to result in near maximum signal) of the receptor was incubated with increasing concentrations (1:100 to 100:1 molar ratio) of purified Fab/IgG in solution. Subsequently, the samples were transferred to a ligand coated and blocked MSD multi-titer plate. The free receptor binds to the ligand and was detected via an appropriate ruthenium complex-labeled antibody and quantified. The concentration of bound receptor as an inverse function of Fab/IgG concentration used for incubation was fitted using the respective model. The inflection point of the fitted curve represents the IC₅₀ value.
row,IC50,Binder
1,0.008 nM,B1

# Target: T3, cynomolgous monkey IL12Rβ1 (recombinant, construct not stated) (cynomolgus monkey, UniProt P42701 24-545 (human entry), limits assumed)
# T3 construct: The SPR method describes capture of an IL12Rβ1-Fc fusion, but the cyno construct is not described; the whole entry is named; also called cyno IL12Rβ1; cynomolgus IL12Rbeta1
# Assay: SPR (Biacore), cyno IL12Rβ1
row,Kd,Binder
1,0.6 nM,B2
2,0.6 nM,B3
3,0.1 nM,B1
4,0.1 nM,B4

# Target: T4, human IL12Rβ1 naturally expressed on cells (Kit225 cells, human T-cells, human blood cells) (human, UniProt P42701 24-662)
# T4 construct: also called IL12 receptor beta 1
# Assay: flow cytometry, cell binding on Kit225 (human natural expression)
# Description: (§2) Cell binding of selected antibodies is tested using various IL-12Rβ1 expressing cell lines, e.g. Kit 225 or HSC—F, or human and cyno T cell blasts, employing flow cytometry. After incubation with serial antibody dilutions, staining of the cells is quantified by flow cytometric analysis.
row,EC50,Binder
1,0.01 nM,B2
2,0.011 nM,B3
3,0.006 nM,B1
4,0.005 nM,B4

# Target: T2, human IL12Rbeta1 polypeptide (soluble …)
# Assay: in vitro competitive binding assay (Bioveris/MSD); inhibition of receptor binding to coated IL12
# Description: as §1
row,IC50,Binder
1,0.008 nM,B2
2,0.008 nM,B3
3,0.008 nM,B4

# Target: T1, mouse IL12Rbeta1
# Assay: not described
row,binding result,Binder
1,no binding,B5
2,no binding,B6
3,no binding,B7

# Target: T4, human IL12Rβ1 naturally expressed on …
# Assay: cell-based or functional assay
row,"IL12/IL18 dependent IFNγ production In human blood cells (IC50, pM)",Binder
1,24 pM,B2
2,42 pM,B3
3,28 pM,B1
4,77 pM,B4

# Target: T5, cynomolgous IL12Rβ1 naturally expressed on cells (HSC-F cells, cyno T-cells, cyno blood cells) (cynomolgus monkey, UniProt P42701 24-662 (human entry))
# Assay: cell-based or functional assay
row,"IL12/IL18 dependent IFNγ production In cyno blood cells (IC50, pM)",Binder
1,284 pM,B2
2,1180 pM,B3
3,239 pM,B1
4,216 pM,B4

# Target: T5, cynomolgous IL12Rβ1 naturally expressed …
# Assay: flow cytometry, cell binding on HSC-F (cyno natural expression)
# Description: as §2
row,EC50,Binder
1,0.023 nM,B2
2,0.023 nM,B1
3,0.013 nM,B4

# Target: T4, human IL12Rβ1 naturally expressed on …
# Assay: flow cytometry, cell binding on human T-cells (human natural expression)
# Description: as §2
row,EC50,Binder
1,0.015 nM,B2
2,0.016 nM,B3
3,0.033 nM,B1
4,0.038 nM,B4

# Target: T2, human IL12Rbeta1 polypeptide (soluble …)
# Assay: in vitro competitive binding assay (Bioveris/MSD); inhibition of receptor binding to coated IL23; IL23 competitive binding (second number of 8/18)
# Description: as §1
row,IC50,Binder
1,0.018 nM,B1

# Target: T2, human IL12Rbeta1 polypeptide (soluble …)
# Assay: in vitro competitive binding assay (Bioveris/MSD); inhibition of receptor binding to coated IL23
# Description: as §1
row,IC50,Binder
1,0.02 nM,B2
2,0.02 nM,B3
3,0.013 nM,B4

# Target: T6, human IL12Rβ1-Fc-Fusion (human, UniProt P42701 24-545)
# T6 construct: Captured on an anti-human-Fc chip for SPR; not shown: Fc part of the fusion
# Assay: SPR (Biacore), IL12Rβ1-Fc fusion captured on anti-human-Fc CM5 chip
# From the text: For determination of KD values, surface plasmon resonance technology was applied using the Biacore™ technology. Anti-human-Fc-capture CM5 chip (Biacore, Sweden) was used for capturing IL12Rβ1-Fc-Fusion followed by ligand (Fab) injection at different concentrations.
row,Kd,Binder
1,0.04 nM,B2
2,0.04 nM,B3
3,0.04 nM,B1
4,0.02 nM,B4

# Target: T5, cynomolgous IL12Rβ1 naturally expressed …
# Assay: flow cytometry, cell binding on cyno T-cells (cyno natural expression)
# Description: as §2
row,EC50,Binder
1,0.036 nM,B2
2,0.028 nM,B3
3,0.055 nM,B1
4,0.041 nM,B4
